According to patent publication US10449259B2, “Enzyme-responsive peptide nanofiber compositions and uses thereof” (Cornell University, priority 2015, dated 2019):
Primed or numbered codes have the meaning given here. *: point of attachment. mPEG2000 = methoxypolyethylene glycol polymer of 2 kDa, conjugated at the peptide N-terminus; FITC = O=C1OC2(c3ccc(O)cc3Oc3cc(O)ccc32)c2ccc(NC(=S)*)cc21; FITC′ = fluorescein isothiocyanate label; mPEG2000(3) = 2 kDa mPEG at N-terminus; Cy5.5 = Cy5.5 fluorophore

What was measured:
[1] = target: T1, CathB (purified from bovine spleen) (Bos taurus, UniProt P07688); test: Enzyme digestion study with CathB (HPLC, MALDI-TOF, TEM, fluorescence); format: biochemical; details: for fluorescence change of quenched nanofibers after CathB digestion: 0.1 μM peptide content, pH 4, 24 hours; for fluorescence change of quenched nanofibers after CathB digestion / CathB digestion, peptide fragments by HPLC: CathB 0.3 U; for CathB digestion, peptide fragments by HPLC: 50 μM peptide content, sodium acetate buffer pH 4, 24 hours; for morphological change in response to CathB digestion (TEM): 24 hour incubation with the enzyme
T1 construct: CathB (purified from bovine spleen); purchased EMD Millipore (Billerica, Mass.); host or cells: bovine spleen (tissue-purified)
Experimental: NFP1 and NFP2 nanofibers (50 μM of peptide content) were incubated with CathB (0.3 U) in sodium acetate buffer (50 μM; pH 4). Nanofibers incubated with buffer only were used as the negative controls. After 24 hours, the samples were taken out for TEM, rp-HPLC, and MALDI-TOF analysis.
Intact or digested NFP1 and NFP2 nanofibers (10 μM of peptide content) in buffer (20 μL) were transferred onto Formvar/carbon-coated 400 mesh copper grids (Electron Microscopy Sciences, Hatfield, Pa.). Excess nanofibers were blotted off using filter paper and the samples were stained with 0.5% (v/v) uranyl formate solution (20 μL). After drying at room temperature, the grids were examined under TEM (JEOL JEM-1400 LaB6 TEM operating at 120 Kv).

[2] = tested on: triple-negative breast cancer MDA-MB-231 cells; test: CellTiter-Glo luminescent cell viability (cytotoxicity) assay, MDA-MB-231; format: cell-based, human; details: for toxicity of naked nanofibers: below a concentration of 1 μM; for IC50: 5 days of incubation, concentration according to DM1 content, mean ± SD, triplicate
Experimental: (§1) The cytotoxicity of drug-loaded NFP1 and NFP2 nanofibers was assessed using the CellTiter-Glo Luminescent Cell Viability Assay (Promega, Madison, Wis.) as previously described in Junttila et al., Breast Cancer Res. Treat. 128 (2), 347-356 (2011). Briefly, cells were seeded on a 96-well plate (2×10^3/well for MDA-MB-231 and MDA-MB-468 and 2×10^4/well for BT474) and were allowed to stabilize overnight. […] After 5 days of incubation, CellTiter-Glo reagent (100 μL) was added to each well. The generated oxyluciferin was quantified for emitted luminescence using a microplate reader (Tecan US Inc., Morrisville, N.C.). All experiments were performed in triplicate, and the results were presented as mean±standard deviation. Statistical analyses were performed using Graph Pad Prism 6.0 software. All data were normalized to the values obtained with the untreated control cells, and half maximal inhibitory concentrations (IC50) were calculated by fitting the obtained data to a sigmoidal curve.
(§2) The cytotoxicity of the DM1-loaded nanofibers was evaluated using various human HER2-positive breast cancer (BT474) and triple-negative breast cancer (MDA-MB-231 and MDA-MB-468) cell lines as ex vivo models. A luminescent cell viability assay was employed to determine the cell viability through quantification of the adenosine triphosphate (ATP) produced by metabolically active cells. This assay offered more accurate and reproducible results compared to the widely used MTS assay (data not shown). Because the cell killing of DM1 is slow, the assays were performed following the incubation of the tested samples for 5 days, as previously described in Junttila et al., Breast Cancer Res. Treat. 128 (2), 347-356 (2011).

[3] = tested on: triple-negative breast cancer MDA-MB-468 cells; test: CellTiter-Glo luminescent cell viability (cytotoxicity) assay, MDA-MB-468; format: cell-based, human; details: for toxicity of naked nanofibers: below a concentration of 1 μM; for IC50: 5 days of incubation, concentration according to DM1 content, mean ± SD, triplicate
Experimental: as §1, §2

MDA-MB-468 tumors = test: In vivo fluorescence monitoring of distribution after tail vein injection, MDA-MB-468 tumors; parameters: species or system nude mice; details: 0.5 nmol of fluorophore content, 48 hours post-injection
Experimental: Similar results were observed when the animals were injected with GSH-NFP nanofibers having a homogenous length of 400 nm. FIGS. 16A and 16B (white arrows).

[4] = tested on: HER2-positive breast cancer (BT474) cells; test: CellTiter-Glo luminescent cell viability (cytotoxicity) assay, BT474; format: cell-based, human; details: 5 days of incubation, concentration according to DM1 content, mean ± SD, triplicate
Experimental: Briefly, cells were seeded on a 96-well plate (2×10^3/well for MDA-MB-231 and MDA-MB-468 and 2×10^4/well for BT474) and were allowed to stabilize overnight. […] After 5 days of incubation, CellTiter-Glo reagent (100 μL) was added to each well. The generated oxyluciferin was quantified for emitted luminescence using a microplate reader (Tecan US Inc., Morrisville, N.C.). […] Statistical analyses were performed using Graph Pad Prism 6.0 software. All data were normalized to the values obtained with the untreated control cells, and half maximal inhibitory concentrations (IC50) were calculated by fitting the obtained data to a sigmoidal curve.
The cytotoxicity of the DM1-loaded nanofibers was evaluated using various human HER2-positive breast cancer (BT474) and triple-negative breast cancer (MDA-MB-231 and MDA-MB-468) cell lines as ex vivo models. A luminescent cell viability assay was employed to determine the cell viability through quantification of the adenosine triphosphate (ATP) produced by metabolically active cells. […] Because the cell killing of DM1 is slow, the assays were performed following the incubation of the tested samples for 5 days, as previously described in Junttila et al., Breast Cancer Res. Treat.

mPEG2000 KLDLKLDLKLDLK-Cy5.5 ({mPEG2000(3)}-KLDLKLDLKLDLK-{Cy5.5}) [Cy5.5-NFP2, optically quenched nanofiber prepared using Cy5.5-conjugated peptide constructs only]
fluorescence change of quenched nanofibers after CathB digestion [1]: only slightly increased

FITC-NFP2: mPEG2000, self-assembling domain KLDLKLDLKLDLK and FITC fluorophore (mPEG2000-KLDLKLDLKLDLK(FITC)-NH2; not fully specified)
CathB digestion, peptide fragments by HPLC [1]: only one fragment
morphological change in response to CathB digestion (TEM) [1]: assembled into an interfibril network

FITC-NFP1: mPEG2000, hexalysine motif, self-assembling domain KLDLKLDLKLDLK and FITC fluorophore (mPEG2000-KKKKKKKLDLKLDLKLDLK(FITC)-NH2; not fully specified)
CathB digestion, peptide fragments by HPLC [1]: multiple peptide fragments
morphological change in response to CathB digestion (TEM) [1]: disintegrated and became shorter in length

NFP2: naked nanofiber of mPEG peptides with self-assembling domain KLDLKLDLKLDLK, no hexalysine motif (mPEG2000-KLDLKLDLKLDLK(FITC′)-NH2; also: mPEG, site not given here)
toxicity of naked nanofibers [2]: nontoxic
toxicity of naked nanofibers [3]: nontoxic

mPEG2000-KKKKKKKLDLKLDLKLDLK-Cy5.5 (mPEG2000-KKKKKKKLDLKLDLKLDLK-{Cy5.5}) [Cy5.5-NFP1, optically quenched nanofiber prepared using Cy5.5-conjugated peptide constructs only]
fluorescence change of quenched nanofibers after CathB digestion [1]: recovery of the fluorescence signal

Cn1cnc(N)c2ncnc1-2 [3MA]
tumoral uptake relative to Cy5.5 (MDA-MB-468 tumors): increased tumoral uptake

T-DM1 [reference compound]
IC50 [2]: 0.0689 ± 0.0038 µM
IC50 [3]: 0.0652 ± 0.0044 µM

NFP1: naked nanofiber of mPEG peptides with hexalysine motif and self-assembling domain KLDLKLDLKLDLK (mPEG2000-KKKKKKKLDLKLDLKLDLK(FITC′)-NH2; not fully specified)
sensitivity to CathB digestion ([1]; compared to NFP2): increased sensitivity to CathB digestion
toxicity of naked nanofibers at high concentration ([2]; 10 μM): significant cell growth inhibition
toxicity of naked nanofibers [2]: nontoxic
toxicity of naked nanofibers at high concentration ([3]; 10 μM): significant cell growth inhibition
toxicity of naked nanofibers [3]: nontoxic

COc1cc2cc(c1Cl)N(C)C(=O)C[C@H](OC(=O)[C@H](C)N(C)C(=O)CCS)[C@]1(C)O[C@H]1[C@H](C)[C@@H]1C[C@@](O)(NC(=O)O1)[C@H](OC)/C=C/C=C(\C)C2 [DM1, N2′-deacetyl-N2′-(3-mercapto-1-oxopropyl)-maytansine, reference compound]
IC50 [2]: 0.0354 ± 0.0042 µM
IC50 [4]: 0.0681 ± 0.005 µM
IC50 [3]: 0.0219 ± 0.0041 µM
